These results are taken from patent publication US20260176306A1.

Assay [1] deals with H7 hemagglutinin of A/Hong Kong/125/2017 H7N9 on pseudo virus (Influenza A virus A/Hong Kong/125/2017 H7N9). In words: cell-based or functional assay.
The target in assay [2] is H7 hemagglutinin of A/Shanghai/4664T/2013 H7N9 on pseudo virus (Influenza A virus A/Shanghai/4664T/2013 H7N9). Briefly: cell-based or functional assay.

B1: H7.HK2 (antibody, V domains shown)
VH: QVQLQGSGPGLLRPSETLSLTCSVSGVSINSYYWSWVRQPPGKALEWIGYIYYSGNTNYNPSLESRVTISVDRSKNQFSLKMTSVTAADTARYFCARQGIFGDYGSDYWGPGTLVTVSS
VL: DIVMTQSPLSLPVTPGEPASISCRSNQSLQHSNGYVHLDWYRQKPGQSPHLLIYLGFNRASGVPDRFSGGGSGTDFTLKISRVEAEDVGVYYCMQGLQTPFTFGPGTTVDLK
In the case of B1, the neutralization IC50, H7N9 2017 pseudo virus, MDCK cells, luciferase in assay [1] turned out to be 0.03 µg/mL.

B2: H7.HK1 (antibody, V domains shown)
VH: QVQLQESGPGLVKPSETLSLTCSVSGGSINSYYWTWIRQPPGKGLEWVGYIYHSGSTSYNPSLKSRITISVAPSKNHFSLELTSMTAADTAVYYCARLGGHGDYGSDYWGQGTLVTVSS
VL: DIVMTQSPVSLPVTPGEPASISCNSSQSLLHSNGYAHLDWYLQKPGQSPKLMIYLGLNRAFGVPDRFSGSGSGTDFTLKISRVEAEDVGVYYCMQALQTPFTFGPGTRVDIK
B2: the neutralization IC50, H7N9 2017 pseudo virus, MDCK cells, luciferase in assay [1] turned out to be 0.03 µg/mL.

B3: H7.HK4 (antibody, V domains shown)
VH: QVQLQESGPGLVKPSETLSLTCTVSGGSVRSASYAWSWIRQPPGKGLEWIGDIYYSGTTNYNPSLKSRVTLSVDTAKNRFSLRLRSVTAADTAVYHCARERYYYGSSGDFDYWGQGTLVTVSS
VL: DIQMTQSPSSLSASVGDRVTITCRASQGIRNYLAWFQQKPGQAPKSLIFAASSLHTGVPSRFSGSGSGTDFTLTISSLQPEDFATYYCQHYNSYPPTFGQGTKLEIK
In turn, B3 returned a neutralization, H7N9 2013 pseudo virus, MDCK cells, luciferase in assay [2] of more than 10 µg/mL.
